Substrate in data set [1]: CC(=O)N[C@@H](CCC(=O)O)C(=O)N[C@@H](C)C(=O)N[C@@H](CC(C)C)C(=O)N1CCC[C@H]1C(=O)N[C@@H](CCCCN)C(=O)N[C@@H](CCCCNC(=O)CCCCCNC(=O)c1ccccc1N)C(=O)N[C@@H](Cc1ccc(O)c([N+](=O)[O-])c1)C(=O)NCC(=O)NCC(N)=O
The data set can be described thus: purified protein, by the assay type. The settings on record: other: Sirt2, measured using fluorescence spectrophotometer (footnote a), 0.5 mM NAD+, 37 °C.

Substrate in data set [2]: CC(=O)N[C@@H](CCC(=O)O)C(=O)N[C@@H](C)C(=O)N[C@@H](CC(C)C)C(=O)N1CCC[C@H]1C(=O)N[C@@H](CCCCN)C(=O)N[C@@H](CCCCNC(=O)CCCCCCCCCCNC(=O)c1ccccc1N)C(=O)N[C@@H](Cc1ccc(O)c([N+](=O)[O-])c1)C(=O)NCC(=O)NCC(N)=O
Kind of data set: purified protein, by the assay type. As to conditions: other: Sirt2, measured using fluorescence spectrophotometer (footnote a), 0.5 mM NAD+, 37 °C.

Substrate in data set [3]: CC(=O)N[C@@H](CCC(=O)O)C(=O)N[C@@H](C)C(=O)N[C@@H](CC(C)C)C(=O)N1CCC[C@H]1C(=O)N[C@@H](CCCCN)C(=O)N[C@@H](CCCCNC(=O)CCCCCCCCCCNC(=O)CN1C(=O)c2cccc3c(N(C)C)ccc(c23)C1=O)C(=O)N[C@@H](Cc1ccc(O)c([N+](=O)[O-])c1)C(=O)NCC(=O)NCC(N)=O
Kind of data set: purified protein, by the assay type. As to conditions: other: MTPR (microtiter plate reader); Sirt2; 37.0 °C.

Substrate in data set [4]: CC(=O)N[C@@H](CCC(=O)O)C(=O)N[C@@H](C)C(=O)N[C@@H](CC(C)C)C(=O)N1CCC[C@H]1C(=O)N[C@@H](CCCCN)C(=O)N[C@@H](CCCCNC(=O)CCCCCNC(=O)CCCCCNC(=O)c1ccccc1N)C(=O)N[C@@H](Cc1ccc(O)c([N+](=O)[O-])c1)C(=O)NCC(=O)NCC(N)=O
Kind of data set: purified protein, by the assay type. The settings on record: other: Sirt2; measured using MTP fluorescence reader (footnote b); 37.0 °C.

Substrate in data set [5]: CC(=O)N[C@@H](CCC(=O)O)C(=O)N[C@@H](C)C(=O)N[C@@H](CC(C)C)C(=O)N1CCC[C@H]1C(=O)N[C@@H](CCCCN)C(=O)N[C@@H](CCCCNC(=O)CCCCCCCNC(=O)c1ccccc1N)C(=O)N[C@@H](Cc1ccc(O)c([N+](=O)[O-])c1)C(=O)NCC(=O)NCC(N)=O
The data set can be described thus: purified protein, by the assay type. The settings on record: other: Sirt2; measured using MTP fluorescence reader (footnote b); 37.0 °C.

Substrate in data set [6]: COc1ccc2c(C[C@H](NC(=O)[C@H](CCCCNC(=O)CCCCCCCCCCNC(=O)c3cc([N+](=O)[O-])ccc3N)NC(=O)[C@H](CCCCN)NC(=O)[C@@H]3CCCN3C(=O)[C@H](CC(C)C)NC(=O)[C@H](C)NC(=O)[C@H](CCC(=O)O)NC(C)=O)C(=O)NCC(=O)NCC(N)=O)cc(=O)oc2c1
The data set can be described thus: purified protein, by the assay type. As to conditions: other: MTPR (microtiter plate reader); Sirt2; 37.0 °C.

Substrate in data set [7]: CCCCCCCCCCCCCC(=O)NCCCC[C@H](NC(=O)[C@H](CCCCN)NC(=O)[C@@H]1CCCN1C(=O)[C@H](CC(C)C)NC(=O)[C@H](C)NC(=O)[C@H](CCC(=O)O)NC(C)=O)C(=O)N[C@H](C(=O)NCC(=O)NCC(N)=O)[C@@H](C)O
Kind of data set: HPLC based activity assay. The format is biochemical, human. As to conditions: other: HPLC; Sirt2; pH 7.8; 37.0 °C. Here is the method:
(§1) For the determination of kinetic constants for all sirtuin mediated reactions solutions containing 20 mM TRIS/HCl pH 7.8, 150 mM NaCl, 5 mM MgCl2 (assay-buffer), 500 μM NAD^+ and varying substrate concentrations (0.5–100 μM) were used. Deacylation was started by adding human sirtuin to reach a final concentration of 0.01–0.5 μM. Enzyme-catalyzed reaction was stopped using TFA (1% final concentration) after 1 min to 180 min of incubation at 37 °C depending on substrate reactivity. The cleavage rate of the different TNFα peptide derivatives was analyzed using analytical reversed phase HPLC. 40 to 80 μl of compounds or reaction solutions were injected and separated using a linear gradient from 5% to 95% solvent B within 6min. The product and substrate peaks were quantified using absorbance at 220 nm or 365 nm (absorption of 3-Nitrotyrosyl moiety). The peak areas were integrated and converted to initial velocity rates calculated from the ratio of product area to total peak area. Linear regression of conversions plotted against time yielded reaction rates in μM/min (relative conversion below 20% of substrate). Non-linear regression according to Michaelis-Menten of the reaction rates at different substrate concentrations yielded KM- and kcat-values using the program SigmaPlot 8 (Systat Software, San Jose, USA). All measurements were done in duplicates.
(§2) The reactions were performed with 0.1- 0.5 µM sirtuin, 500 µM NAD^+ and 50µM 13/16. All reactions were done in duplicates (n=2).

Substrate in data set [8]: CC(=O)N[C@@H](CCC(=O)O)C(=O)N[C@@H](C)C(=O)N[C@@H](CC(C)C)C(=O)N1CCC[C@H]1C(=O)N[C@@H](CCCCN)C(=O)N[C@@H](CCCCNC(=O)CCCCCNC(=O)c1ccccc1N)C(=O)N[C@@H](Cc1ccc(O)c([N+](=O)[O-])c1)C(=O)NCC(=O)NCC(N)=O
The data set can be described thus: HPLC based activity assay. The data set is classed as biochemical, human. As to conditions: other: HPLC; Sirt2; pH 7.8; 37.0 °C. Here is the method: as §1, §2

Substrate in data set [9]: CC(=O)N[C@@H](CCC(=O)O)C(=O)N[C@@H](C)C(=O)N[C@@H](CC(C)C)C(=O)N1CCC[C@H]1C(=O)N[C@@H](CCCCN)C(=O)N[C@@H](CCCCNC(=O)CCCCCCCCCCNC(=O)c1ccccc1N)C(=O)N[C@@H](Cc1ccc(O)c([N+](=O)[O-])c1)C(=O)NCC(=O)NCC(N)=O
Kind of data set: HPLC based activity assay. The format is biochemical, human. The settings on record: other: HPLC; Sirt2; pH 7.8; 37.0 °C. Here is the method: as §1, §2

Several values for one entry are separate records, joined by “and”; a condition that tells them apart may be missing. Equal values may be shown once.

B1: Sirt2 (Homo sapiens) (protein)
chain: MAEPDPSHPLETQAGKVQEAQDSDSDSEGGAAGGEADMDFLRNLFSQTLSLGSQKERLLDELTLEGVARYMQSERCRRVICLVGAGISTSAGIPDFRSPSTGLYDNLEKYHLPYPEAIFEISYFKKHPEPFFALAKELYPGQFKPTICHYFMRLLKDKGLLLRCYTQNIDTLERIAGLEQEDLVEAHGTFYTSHCVSASCRHEYPLSWMKEKIFSEVTPKCEDCQSLVKPDIVFFGESLPARFFSCMQSDFLKVDLLLVMGTSLQVQPFASLISKAPLSTPRLLINKEKAGQSDPFLGMIMGLGGGMDFDSKKAYRDVAWLGECDQGCLALAELLGWKKELEDLVRREHASIDAQSGAGVPNPSTSASPKKSPPPAKDEARTTEREKPQ
notes: made in house
As to B1, the Michaelis-Menten constant (Km) (usually the substrate concentration at which the rate is half of its maximum) was 17.7 ± 1.5 µM in data set [1]; 0.1 ± 0.02 µM and 0.12 ± 0.02 µM in data set [2]; 7.5 ± 1.5 µM in [3]; 15.3 ± 2.7 µM in data set [4]; 1.2 ± 0.1 µM in [5]; 0.8 ± 0.1 µM in data set [6]. The Km worked out at 0.7 ± 0.1 µM in data set [7], 26.8 ± 2.7 µM in [8] and 0.3 ± 0.04 µM in data set [9]. Further, the kcat was 2.6∙10^-3 ± 0.2∙10^-3 s^-1 in data set [3]; 9.6∙10^-2 ± 0.5∙10^-2 s^-1 in data set [6]; 3.7∙10^-2 ± 0.1∙10^-2 s^-1 in data set [7]; 3.9∙10^-3 ± 0.2∙10^-3 s^-1 in data set [8]; 3.9∙10^-2 ± 0.1∙10^-2 s^-1 in [9]. Besides, the kcat/Km (in general, the turnover number divided by the Michaelis constant) in data set [3] was 3.42∙10^2 M^-1s^-1; in data set [4], 156 M⁻¹ s⁻¹; in data set [5] it was 38600 M⁻¹ s⁻¹; in [6] it was 1.25∙10^5 M^-1s^-1; in data set [7] it was 5.30∙10^4 M^-1s^-1; in [8], 1.46∙10^2 M^-1s^-1. For the same protein, the kcat/Km in data set [9] is given as 1.18∙10^5 M^-1s^-1.

Source of the values: PMC4778124, “A continuous sirtuin activity assay without any coupling to enzymatic or chemical reactions” (Scientific Reports, 2016).
